Data taken from article PMC9579124, “IKKβ binds NLRP3 providing a shortcut to inflammasome activation for rapid immune responses” (Signal Transduction and Targeted Therapy, 2022).

Molecular target: T1, MST-Red-NLRP3 (UniProt Q96P20 1-1036, MST-Red label (position not given))
T1 construct: NLRP3 labelled with MST-Red for microscale thermophoresis
Assay: MST; in solution; 50 nM MST-Red-NLRP3 titrated against increasing concentrations of IKKβ; two independent titrations
Settings: both partners purified

T1 sequence (Q96P20 whole entry): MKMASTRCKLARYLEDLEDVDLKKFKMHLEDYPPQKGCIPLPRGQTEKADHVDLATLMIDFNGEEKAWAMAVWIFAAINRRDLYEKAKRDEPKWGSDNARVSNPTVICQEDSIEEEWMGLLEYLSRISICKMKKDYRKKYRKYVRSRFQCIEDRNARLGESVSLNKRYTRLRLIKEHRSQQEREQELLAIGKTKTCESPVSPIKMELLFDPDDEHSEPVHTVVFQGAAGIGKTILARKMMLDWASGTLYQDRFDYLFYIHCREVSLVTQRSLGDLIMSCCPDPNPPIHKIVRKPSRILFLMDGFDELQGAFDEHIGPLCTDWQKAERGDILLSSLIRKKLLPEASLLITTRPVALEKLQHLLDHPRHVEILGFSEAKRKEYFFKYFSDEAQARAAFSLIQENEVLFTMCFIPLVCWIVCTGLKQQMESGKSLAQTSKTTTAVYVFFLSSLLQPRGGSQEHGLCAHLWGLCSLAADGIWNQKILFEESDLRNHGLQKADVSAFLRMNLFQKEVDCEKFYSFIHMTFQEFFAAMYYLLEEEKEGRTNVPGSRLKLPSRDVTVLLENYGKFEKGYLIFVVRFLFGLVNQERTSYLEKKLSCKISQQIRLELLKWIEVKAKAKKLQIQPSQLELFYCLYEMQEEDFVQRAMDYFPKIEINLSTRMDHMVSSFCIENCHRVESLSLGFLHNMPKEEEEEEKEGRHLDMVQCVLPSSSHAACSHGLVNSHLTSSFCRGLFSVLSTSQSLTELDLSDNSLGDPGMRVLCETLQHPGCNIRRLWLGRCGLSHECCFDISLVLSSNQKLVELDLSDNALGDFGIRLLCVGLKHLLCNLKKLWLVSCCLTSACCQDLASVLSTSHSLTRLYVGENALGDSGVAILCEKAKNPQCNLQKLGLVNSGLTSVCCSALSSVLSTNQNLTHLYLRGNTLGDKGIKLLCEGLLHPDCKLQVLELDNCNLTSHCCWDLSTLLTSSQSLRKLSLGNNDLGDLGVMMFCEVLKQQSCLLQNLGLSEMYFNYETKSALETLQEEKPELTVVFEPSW

Kd: 1430 ± 350 nM
B1: IKKβ used for microscale thermophoresis (enzyme, UniProt O14920 1-756, looked up)
chain: MSWSPSLTTQTCGAWEMKERLGTGGFGNVIRWHNQETGEQIAIKQCRQELSPRNRERWCLEIQIMRRLTHPNVVAARDVPEGMQNLAPNDLPLLAMEYCQGGDLRKYLNQFENCCGLREGAILTLLSDIASALRYLHENRIIHRDLKPENIVLQQGEQRLIHKIIDLGYAKELDQGSLCTSFVGTLQYLAPELLEQQKYTVTVDYWSFGTLAFECITGFRPFLPNWQPVQWHSKVRQKSEVDIVVSEDLNGTVKFSSSLPYPNNLNSVLAERLEKWLQLMLMWHPRQRGTDPTYGPNGCFKALDDILNLKLVHILNMVTGTIHTYPVTEDESLQSLKARIQQDTGIPEEDQELLQEAGLALIPDKPATQCISDGKLNEGHTLDMDLVFLFDNSKITYETQISPRPQPESVSCILQEPKRNLAFFQLRKVWGQVWHSIQTLKEDCNRLQQGQRAAMMNLLRNNSCLSKMKNSMASMSQQLKAKLDFFKTSIQIDLEKYSEQTEFGITSDKLLLAWREMEQAVELCGRENEVKLLVERMMALQTDIVDLQRSPMGRKQGGTLDDLEEQARELYRRLREKPRDQRTEGDSQEMVRLLLQAIQSFEKKVRVIYTQLSKTVVCKQKALELLPKVEEVVSLMNEDEKTVVRLQEKRQKELWNLLKIACSKVRGPVSGSPDSMNASRLSQPGQLMSQPSTASNSLPEPAKKSEELVAEAHNLCTLLENAIQDTVREQDQSFTALDWSWLQTEEEEHSCLEQAS
notes: IKKβ titrated in MST
